Reference: article PMC11505474, “Functional Characterization of the Ciliate Stylonychia lemnae Serotonin N-Acetyltransferase, a Pivotal Enzyme in Melatonin Biosynthesis and Its Overexpression Leads to Peroxidizing Herbicide Tolerance in Rice” (Antioxidants, 2024)

What was measured:
COc1ccc2[nH]cc(CCN)c2c1 = assay: purified protein; conditions: acetyl-CoA 0.5 mM co-substrate, 100 mM potassium phosphate, pH 8.8 (or varying pH), 55 °C (general assay)
NCCc1c[nH]c2ccc(O)cc12 = assay: purified protein; conditions: acetyl-CoA 0.5 mM co-substrate, 100 mM potassium phosphate, pH 8.8 (or varying pH), 55 °C (general assay)

SlSNAT (Stylonychia lemnae serotonin N-acetyltransferase) (Stylonychia lemnae)
Km (COc1ccc2[nH]cc(CCN)c2c1): 246 µM | Km (NCCc1c[nH]c2ccc(O)cc12): 776 µM
